Measurements from patent publication EP4279506A1 (Persongen Biotherapeutics (Suzhou) Co., Ltd., dated 2023).

How the values were obtained:
[1] = biological target: B7-H3-His recombinant protein (UniProt Q5ZPR3); test: SPR; B7-H3-His on CM5 chip, antibody as mobile phase
[2] = biological target: T1, human 4Ig-B7-H3 (h4IgB7H3) expressed on Raji cells (human, UniProt Q5ZPR3 29-534); test: flow cytometry on h4IgB7H3-Raji cells
T1 construct: whole, on cells; also called h4IgB7H3-Raji
T1 sequence (looked up): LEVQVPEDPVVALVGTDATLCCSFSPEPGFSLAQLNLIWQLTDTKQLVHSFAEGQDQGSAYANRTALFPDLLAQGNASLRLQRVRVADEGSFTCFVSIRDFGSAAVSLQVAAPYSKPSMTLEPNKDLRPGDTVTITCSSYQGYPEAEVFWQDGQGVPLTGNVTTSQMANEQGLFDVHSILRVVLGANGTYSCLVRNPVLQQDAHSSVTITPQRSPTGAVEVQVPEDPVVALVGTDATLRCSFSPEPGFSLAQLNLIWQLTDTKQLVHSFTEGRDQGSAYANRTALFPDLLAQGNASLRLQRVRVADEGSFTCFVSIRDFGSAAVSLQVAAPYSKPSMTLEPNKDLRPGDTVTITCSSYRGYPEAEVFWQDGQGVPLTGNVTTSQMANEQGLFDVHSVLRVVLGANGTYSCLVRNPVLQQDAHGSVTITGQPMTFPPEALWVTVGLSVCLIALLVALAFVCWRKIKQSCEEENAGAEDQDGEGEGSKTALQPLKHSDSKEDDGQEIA

[3] = biological target: T2, murine 2Ig-B7-H3 (m2IgB7H3) expressed on Raji cells (mouse, UniProt Q8VE98 29-316); test: flow cytometry on m2IgB7H3-Raji cells
T2 construct: whole, on cells; also called m2IgB7H3-Raji; mB7-H3-Raji
T2 sequence (looked up): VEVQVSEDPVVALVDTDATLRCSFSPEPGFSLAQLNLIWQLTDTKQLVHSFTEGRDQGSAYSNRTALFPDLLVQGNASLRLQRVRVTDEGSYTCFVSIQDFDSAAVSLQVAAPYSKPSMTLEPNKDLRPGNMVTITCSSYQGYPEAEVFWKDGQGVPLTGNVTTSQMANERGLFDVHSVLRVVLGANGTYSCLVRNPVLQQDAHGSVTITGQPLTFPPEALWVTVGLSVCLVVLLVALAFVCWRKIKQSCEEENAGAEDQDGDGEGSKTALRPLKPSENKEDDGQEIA

B1: mouse anti-human mB7-H3 antibody (antibody, V domains shown)
VH: EVTLVESGGGLVKPGGSLKLSCAASGFTFSTYVMSWVRQTPEKRLEWVASILSGGTSFYADNVKGRFTISRENARNILYLQMSSLKSEDTAMYYCVRRYGHDHYYAMDYWGQGTSVTVSS
VL: QIVLTQSPANMSASLGERVTMTCAASSSVSSSYLHWYQQKPGSSPKLWIYSTSNLASGVPGRFNGSGSGTSYSLTISSMEAEDAATYYCHQYHRSPWTFGGGTKLEIK
[1]
  Kd: 70.8 nM
  koff: 0.00258 s⁻¹
  kon: 36400 M⁻¹ s⁻¹

B2: humanized B7-H3 antibody T1H1-T1L1 (αhB7-H3 antibody) (antibody, V domains shown)
VH: EVQLVESGGGLIQPGGSLRLSCAASGFTFSTYVMSWVRQAPGKGLEWVSSILSGGTSFYADNVKGRFTISRDNSKNTLYLQMNSLRAEDTAVYYCARRYGHDHYYAMDYWGQGTLVTVSS
VL: EIVLTQSPATLSLSPGERATLSCAASSSVSSSYLHWYQQKPGLAPRLLIYSTSNLASGIPDRFSGSGSGTDFTLTISRLEPEDFAVYYCQQYHRSPWTFGGGTKVEIK
notes: They were subcloned into the pcDNA3.1-IgG1Fc (heavy) and pcDNA3.1-IgKc (light) expression vectors; The antibody was detected with anti-human IgG; also called αhB7-H3 Ab; B7-H3 T1H1-T1L1
[2]
  binding result: binds
[3]
  binding result: binds
[1]
  Kd: 114 nM
  koff: 0.00282 s⁻¹
  kon: 24800 M⁻¹ s⁻¹

B3: humanized B7-H3 antibody T2H1-T2L1 (βhB7-H3 antibody) (antibody, V domains shown)
VH: EVQLVESGGGVVRPGGSLRLSCAASGFTFSTYVMSWVRQAPGKGLEWVSSILSGGTSFYADNVKGRFTISRDNAKNSLYLQMNSLRAEDTALYHCARRYGHDHYYAMDYWGQGTTVTVSS
VL: DIQMTQSPSTLSASVGDRVTITCAASSSVSSSYLHWYQQKPGKAPKLLIYSTSNLASGVPSRFSGSGSGTEFTLTISSLQPDDFATYYCQQYHRSPWTFGQGTKLEIK
[1]
  Kd: 72.8 nM
  koff: 0.00289 s⁻¹
  kon: 39700 M⁻¹ s⁻¹
